The DeepSol protein solubility set

Assay: soluble on expression in E. coli; label from the status in PepcDB or PDB records
With “HGPAPLDLDKYVEIARLCKYLPENDLKRLCDYVCDLLLEESNVQPVSTPVTVCGDIHGQFYDLCELFRTGGQVPDTNYIFMGDFVDRGYYSLETFTYLLALKAKWPDRITLLRGNHESRQITQVYGFYDECQTKYGNANAWRYCTKVFDMLTVAALIDEQILCVHGGLSPDIKTLDQIRTIERNQEIPHKGAFCDLVWSDPEDVDTWAISPRGAGWLFGAKVTNEFVHINNLKLICRAHQLVHEGYKFMFDEKLVTVWSAPNYCYRCGNIASIMVFKDVNTREPKLFRAVPDSVRASSPSPL” the “soluble on expression in E. coli” value was “soluble”. For “MSLKIVIIGASFAGISAAIASRKKYPQAEISLIDKQATVGYLSGGLSAYFNHTINELHEARYITEEELRRQKIQLLLNREVVAMDVENQLIAWTRKEEQQWYSYDKLILATGASQFSTQIRGSQTEKLLKYKFLSGALAAVPLLENSQTVAVIGAGPIGMEAIDFLVKMKKTVHVFESLENLLPKYFDKEMVAEVQKSLEKQAVIFHFEETVLGIEETANGIVLETSEQEISCDSGIFALNLHPQLAYLDKKIQRNLDQTIAVDAYLQTSVPNVFAIGDCISVMNEPVAETFYAPLVNNAVRTGLVVANNLEEKTHRFIGSLRTMGTKVGDYYLASTGLTETEGLFFPQTLASIIVRQPAPPLQHGTEILGKLIYDKVTQRVLGAQLCSKNNCLEKINTLALSIQTGQTLTDLLQKDYFYQPSLTNIYDITNLMGASAYWRENDEGHHHHHH”, the “soluble on expression in E. coli” value was “soluble”. In the case of “MGSDKIHHHHHHMKNYALLNGAYDNKTMYDFKPVRADNTYLYDSQNRKYLDLRSGLWNTSLGYIDSLYQRVSKRFDQVLNKKLPYLDIHSFQHDIYDEVAQKVLELTGHAFKRVLYTNSGSENTELALKIADYTNKKGENNRILAFKDSYHGTFFGGVSVSGIDQEINSSFYPKYGEVTFIDYPKSAEQEKNVLDYIANVASFYDVMMIEPILASAGIYFASTDFFNALLKLLRKNQVLIVFDEVATGFFKTGKPFYFQQLSEKPDILCLSKAINNGITSFGCVCVNEEVDAKLQKNPKTMEHFSTQNGNLLGLESANIVLDYYLKSRDVIKGKVKDISDSISNVLDSQNVFYRNQGIMTAIRTESNQSLQLMKSLEKLGILTYLYVNEEEEGLSIMPPININLNVLEKALKLISKKIESQNSF”, the “soluble on expression in E. coli” value is reported as “not soluble”. With “MLKKHLTTQLFQKKKKKKLHLVLDLDHTLLHSVLVSDLSKREKYLLEETDSRQDLWRRNVDGYEFIIKLRPFLHEFLLEANKLFTMHVYTMGSSSYAKQVLKLIDPDKVYFGKRVITREASPFNKSLDLLAADKRRVVIVDDTVHVWPFHKRNLLQITKYVYFKVDGTKWDSYAEAKKDESQSNGSLANVLKFLEDVHKRFEEDLGFKDLRLLIPCRQCCY” the “soluble on expression in E. coli” value was “soluble”. In the case of “MSLTIGFIFDLDGVITDTAKFHYQAWKALADSLGIPIDETFNETLKGISRMDSLDRILVHGHRENAFTPAEKEALAQQKNDHYVQLLEQLTTEDVLPGVVPLLQQAQARHIPCAVASASKNAPLILEKLGVRAYFATIVDPDSLSKGKPDPEIFLAAADSIGVLPQNAIGFEDAQSGIDGLKAAGIYAVGLSASQPLIGADMQVSEMTELSVDALLNREGHHHHHH”, the “soluble on expression in E. coli” value is reported as “soluble”. With “MIDRPDTGEGTNYLIVGSDSRAGMSAEEKKKLHTGSAEGKRTDSMMILHTGDNGSTLVSLPRDSDVEIPTFKGSTSGKTYPGTGRHVKLNAAYAEDGPELLVRTIEYNTGLHIDHYVEIGFAGFANIVDSVGGVEMTLDKGFKDTFSGADFKAGKQTLNGEQALAFVRTRHAFAASDLERTKNQQKFLSALAHQVATPSTVLNPFKLYPTLSSGLDTLIVDKDMGLFDLADMFWAMKGVTGGDGTSMNMPISGSSGGNLVWDKAKVKALVNELKNDEKVTVSGNLEHHHHHH” the “soluble on expression in E. coli” value was “soluble”. In the case of “MGSDKIHHHHHHMRILWINHRDPKHPQAGGAEVRLYEIARRLVKMGHEVMVLCEKVSRLPGEEVLEGIRIKRSGGRASIHLLAPLYVRKHGHEYDVIVDDIAHAVPWYSPLVTKTPVVAQIHHVHQDVVYIELPKPLAWIVSRAEKTIAKIYRRFIAVSQSTKKELAKRLGIDPDRIAVVPNGVDLEKYRPGSKDPRPTILWAGRIKMYKNLDHLLKAYRIVKQEIPDAQLIIIGTGDQEQKMRELAKKLEPRDVHFLGKMSEQEKIMWMQRAWIIVSTSMIEGWGITITEAAACKIPAIAYNVPGLRDSVKHMETGILVEPGNIEQLAKAIAWLLTDNSLRNKLSENAYNYAQSFSWDNTAITFLNILEDITRI”, the “soluble on expression in E. coli” value is reported as “not soluble”. With “MGSDKIHHHHHHMSLKEEQVSIKQDPEQEERQHDQFNDVQIKQESQDHDGVDSQYTNGTQNDDSERFEAAESDVKVEPGLGMGITSSQSEKGQVLPDQPEIKFIRRQINGYVGFANLPKQWHRRSIKNGFSFNLLCVGPDGIGKTTLMKTLFNNDDIEANLVKDYEEELANDQEEEEGQGEGHENQSQEQRHKVKIKSYESVIEENGVKLNLNVIDTEGFGDFLNNDQKSWDPIIKEIDSRFDQYLDAENKINRHSINDKRIHACLYFIEPTGHYLKPLDLKFMQSVYEKCNLIPVIAKSDILTDEEILSFKKTIMNQLIQSNIELFKPPIYSNDDAENSHLSERLFSSLPYAVIGSNDIVENYSGNQVRGRSYPWGVIEVDNDNHSDFNLLKNLLIKQFMEELKERTSKILYENYRSSKLAKLGIKQDNSVFKEFDPISKQLEEKTLHEAKLAKLEIEMKTVFQQKVSEKEKKLQKSETELFARHKEMKEKLTKQLKALEDKKKQLELSINSASPNVNHSPVPTKKKGFLR” the “soluble on expression in E. coli” value was “not soluble”. For “MGSDKIHHHHHHMFLDGEEGLIGYIIVTGTAGAGKSSLVGALADRITSLGANVATLNLDPAAEKLPYDPSVDARDYVSVAELMDKGLGPNGALVAAVDSLINHVLDIREEIDYYSPDYVVVDTPGQLELFAYRVGGPLVLRGIMGDYNGVNIFLIDSIFIDNAISLVSALLLASSVAVRLGLPQVNAVSKADMLLPEVREEVIPRLGEPGFLEFLLEKDKTYEGAGKALAEELARAIETTGFIGEVLQASVLEPETVTLLAAKAQQILAGGDDYKIYDITGQ”, the “soluble on expression in E. coli” value was “not soluble”. In the case of “MGSDKIHHHHHHMKESGNFEFDDVQGLLRFGYGKLADTCFMLLKIADASAARQWLSTAPVSSAIAIHPPPDTALQIAFSVQGLRALGIDESIIDGFSDEFVHGMTRNENCSRRLGDIGHNAPKYWKWGEGADVPHILLLLYARKGGLDAWKATVEGEYFSQAFQLLQYLPTSDMGRTDPFGFEDGISQPAIDWADRHDTDSHANDRYTNLLAAGEMVLGYPNEYGQYTARPLIDLQKDRFAVNLPDAKDDPARKDFGRNGTYLVLRQLEQNVPGFWQFLDKVSDSIPEKRERLAASMVGRERNGTPLIAEHIPGILPKDHGNHFTYDLDPKGNHCPVSAHVRRANPRTGDLPTAVTGTGAIALINRLVKILGFGQKPEEDLIASSRFHRLLRRGRSYGPVLAPGDAVKPDAPAAERGLQFICLVANIGRQFEFVQNAWIVNGKFGGLQEEPDPLLGNREPMINGNSTDHFNRPTSSGSMQKTCHLPQFTTVLGGGYFFMPGLRALKYISALPANGNGGSS”, the “soluble on expression in E. coli” value is reported as “not soluble”. In the case of “MKIITCYKCVPDEQDIAINNADGTLDFSKADSKISQYDLNAIEAACQLKQQLGDAQVVAMSVGGKALTNAKGRKDVLSRGPDELIVVIDDQFEQALPQHTATALAAAAQKSGFDLLICGDGSSDLYAQQVGLLVGEALNIPAINGVSKILSLTDSTLTVERELEDEVETLSIPLPAVIAVSTDINTPQIPSMKAILGAAKKPVQVWSPADIGLNSVPAYSAQQVAAPKQRERQRVVIEGDGEEQIAAFVENLRKII”, the “soluble on expression in E. coli” value is reported as “not soluble”. In the case of “MSLTRFQDRQEGERVVDFYMIRDREVKRASNGTDYLNLTLERKLEYIPARLWDATEQHKQALIRRAVVKVDGVVTVYRQQKQLNIQRIRLATDEDPVTVAELISKPGLSREELWHELRMIIEEIQDETLLKLVKTMLGKKEIRERFTTIPASKATHHPYYAGLLEHVVEVCQSILQLSLIYGTINRDVVIAAAILHDIGKVAALHDPFAPEYTDEGEMIGHVVLGVELINQTAQELGISMDEPILLAVKHCILSQREQDEGATSFVYGPKTKEAILLAALDQLNGRLNSFELMASHAEERWTYSPLFKRKMFTPDNDEGHHHHHH”, the “soluble on expression in E. coli” value is reported as “soluble”. For “MGSDKIHHHHHHMKYVVVSGGVISGIGKGVLASSTGMLMKTLGLKVTSIKIDPYMNIDAGTMSPLEHGECFVLDDGGETDLDLGNYERYLGVTLTKDHNITTGKIYSHVIAKERKGDYLGKTVQIVPHLTNAIQDWIERVAKIPVDDTGMEPDVCIIELGGTVGDIESAPFVEALRQFQFKVGKENFALIHVSLVPVIHGEQKTKPTQAAIKGLRSLGLVPDMIACRCSETLDKPTIDKIAMFCHVGPEQVVNVHDVNSTYHVPLLLLEQKMIDYLHARLKLDEISLTEEEKQRGLELLSKWKATTGNFDESMETVKIALVGKYTNLKDSYLSVIKALEHSSMKCRRKLDIKWVEATDLEPEAQESNKTKFHEAWNMVSTADGILIPGGFGVRGTEGMVLAARWARENHIPFLGVCLGLQIATIEFTRSVLGRKDSHSAEFYPDIDEKNHVVVFMPEIDKETMGGSMRLGLRPTFFQNETEWSQIKKLYGDVSEVHERHRHRYEINPKMVDELENNGLIFVGKDDTGKRCEILELKNHPYYIATQYHPEYTSKVLDPSKPFLGLVAASAGILQDVIEGKYDLEAGENKFNF”, the “soluble on expression in E. coli” value was “not soluble”. With “GSHMIASLSDSVSNAREERMALRQEQEQLQSRIQSLMQRAPVWLAAQNSLNQLSEQCGEEFTSSQDVTEYLQQLLEREREAIVERDEVGARKNAVDEEIERLSQPGGSEDQRLNALAERFGGVLLSEIYDDVSLEDAPYFSALYGPSRHAIVVPDLSQVTEHLEGLTDCPEDLYLIEGDPQSFDDSVFSVDELEKAVVVKIADRQWRYSRFPEVPLFGRAARESRIESLHAEREVLSERFATLSFDVQKTQRLHQAFSRFIGSHLAVAFESDPEAEIRQLNSRRVELERALSNHENDNQQQR” the “soluble on expression in E. coli” value was “soluble”. In the case of “MTKMSITVNQTVLHQLVKNVDGDSIKMESVLRDELLSITPEVEQMMLQLHQSYQNKAKAFGVFQEKSIFAQHLNRLLEQEIEFLGFSQYSTKLLADELGKYNFAESGTLILCQYNFLATDYLFIALLDSRHSMLVDEHLDIRRTEYLDITQFDIAARINLTDLQVNANSNRYLTFIKGRVGRKISDFFMDFLGAEEGLNPQVQNQCLLQAVSDYCDQGELNKEQTQAVKKQVFEYCKGQLSNGNNIELRELSDSLPTLNEQPFVVFTEKQNYGLEESIPPIRSTLKSLTKFSGSGKGVTLSFDAELLNTRIQWDPMTDTLTIKGLPPNLKDQLQKALKSEN”, the “soluble on expression in E. coli” value is reported as “not soluble”. With “MRNKADNKKRNFLTHSEIESLLKAANTGPHATRNYCLILLCFIHGFRASEICRLRISDIDLKAKCIYIHRLKKGFSTTHPLLNKEVQALKNWLSIRTSYPHAESEWVFLSRKGNPLSRQQFYHIISTSGGNAGLSLEIHPHMLRYSCGFALANMGIDTRLI” the “soluble on expression in E. coli” value was “not soluble”. For “MGSSHHHHHHSSGLVPRGSHMASNPNDDMPVDKILEAELISDPKVEQVVPFEQVNENDPVSNICKAADRQLVTLVEWAKRIPHFSSLPLEDQVILLRAGWNELLIASFSHRSIDVKDSILLASGLHVHRHSAHQAGVGPIFDRVLTELVSKMRDMMMDKTELGCLRAVVLFNPDVKNPSDSAHIESLREKVYASLEAYCRSKYPDQPGRFAKLLLRLPALRSIGLKCLEHLFFFKLIGDTPIDKFLMNMLETTSDFPV”, the “soluble on expression in E. coli” value was “soluble”. With “MGSSHHHHHHSSGLVPRGSHMNIPRFGVKTDQEELLAQELENLNKWGLNIFCVSDYAGGRSLTCIMYMIFQERDLLKKFRIPVDTMVTYMLTLEDHYHADVAYHNSLHAADVLQSTHVLLATPALDAVFTDLEILAALFAAAIHDVDHPGVSNQFLINTNSELALMYNDESVLENHHLAVGFKLLQEDNCDIFQNLSKRQRQSLRKMVIDMVLATDMSKHMTLLADLKTMVETKKVTSSGVLLLDNYSDRIQVLRNMVHCADLSNPTKPLELYRQWTDRIMAEFFQQGDRERERGMEISPMCDKHTASVEKSQVGFIDYIVHPLWETWADLVHPDAQEILDTLEDNRDWYYSAI” the “soluble on expression in E. coli” value was “soluble”.
